Where a chain is given by its changes, count along the chain named. In names and notes the source's numbering stands. Several values for one entry are separate records, joined by “and”; a condition that tells them apart may be missing. Equal entries are not always repeated.
B1: Drp1 R247A (full-length) (natural protein, human, UniProt O00429-4 1-699, looked up)
chain: MEALIPVINKLQDVFNTVGADIIQLPQIVVVGTQSSGKSSVLESLVGRDLLPRGTGIVTRRPLILQLVHVSQEDKRKTTGEENGVEAEEWGKFLHTKNKLYTDFDEIRQEIENETERISGNNKGVSPEPIHLKIFSPNVVNLTLVDLPGMTKVPVGDQPKDIELQIRELILRFISNPNSIILAVTAANTDMATSEALKISREVDPDGRRTLAVITKLDLMDAGTDAMDVLMGRVIPVKLGIIGVVNASQLDINNKKSVTDSIRDEYAFLQKKYPSLANRNGTKYLARTLNRLLMHHIRDCLPELKTRINVLAAQYQSLLNSYGEPVDDKSATLLQLITKFATEYCNTIEGTAKYIETSELCGGARICYIFHETFGRTLESVDPLGGLNTIDILTAIRNATGPRPALFVPEVSFELLVKRQIKRLEEPSLRCVELVHEEMQRIIQHCSNYSTQELLRFPKLHDAIVEVVTCLLRKRLPVTNEMVHNLVAIELAYINTKHPDFADACGLMNNNIEEQRRNRLARELPSAVSRDKVASGGGGVGDGVQEPTTGNWRGMLKTSKAEELLAEEKSKPIPIMPASPQKGHAVNLLDVPVPVARKLSAREQRDCEVIERLIKSYFLIVRKNIQDSVPKAVMHFLVNHVKDTLQSELVGQLYKSSLLDDLLTESEDMAQRRKEAADMLKALQGASQIIAEIRETHLW
notes: dynamin-related protein 1 (Drp1), human, full length, with R247A in the GTPase domain; source: E. coli BL21 Star (DE3), purified
B2: full-length Drp1 WT (Drp1 short; human isoform 3; 699 a.a.) (natural protein, UniProt O00429-4 1-699, looked up)
chain: B1 chain with A247R
notes: dynamin-related protein 1 (Drp1), human, short isoform; human isoform 3; 699 a.a; also called Drp1-short-80-loop; dynamin-related protein 1; source: E. coli BL21 Star (DE3), purified
B3: Drp1ΔVD (Δ514–602) (natural protein, human, UniProt O00429-4 1-699, looked up)
chain: MEALIPVINKLQDVFNTVGADIIQLPQIVVVGTQSSGKSSVLESLVGRDLLPRGTGIVTRRPLILQLVHVSQEDKRKTTGEENGVEAEEWGKFLHTKNKLYTDFDEIRQEIENETERISGNNKGVSPEPIHLKIFSPNVVNLTLVDLPGMTKVPVGDQPKDIELQIRELILRFISNPNSIILAVTAANTDMATSEALKISREVDPDGRRTLAVITKLDLMDAGTDAMDVLMGRVIPVKLGIIGVVNRSQLDINNKKSVTDSIRDEYAFLQKKYPSLANRNGTKYLARTLNRLLMHHIRDCLPELKTRINVLAAQYQSLLNSYGEPVDDKSATLLQLITKFATEYCNTIEGTAKYIETSELCGGARICYIFHETFGRTLESVDPLGGLNTIDILTAIRNATGPRPALFVPEVSFELLVKRQIKRLEEPSLRCVELVHEEMQRIIQHCSNYSTQELLRFPKLHDAIVEVVTCLLRKRLPVTNEMVHNLVAIELAYINTKHPDFADACGLMNNNIEEQRDCEVIERLIKSYFLIVRKNIQDSVPKAVMHFLVNHVKDTLQSELVGQLYKSSLLDDLLTESEDMAQRRKEAADMLKALQGASQIIAEIRETHLW
notes: dynamin-related protein 1 (Drp1), human, with the variable domain deleted (Δ514–602); ~70 kDa monomer; source: E. coli BL21 Star (DE3), purified
B4: Drp1 G350D (full-length stalk L1N mutant) (natural protein, human, UniProt O00429-4 1-699, looked up)
chain: B1 chain with A247R, G350D
notes: dynamin-related protein 1 (Drp1), human, short isoform (isoform 3, 699 a.a.) with G350D; source: E. coli BL21 Star (DE3), purified

How the values were obtained:
[1] = target: the molecule itself; experiment: SEC-MALS; full-length Drp1 WT and mutants, nucleotide-free, each loaded at 10 μM in 500 μl onto Superose 6 10/300 GL in Buffer A (20 mM HEPES pH 7.5, 150 mM KCl) with 1 mM DTT
[2] = target: full-length Mff (mitochondrial fission factor), reconstituted in CL-free nanotubes or liposomes; experiment: cell-based or functional assay
[3] = target: the molecule itself; experiment: SEC-MALS; included (soluble) fraction of Drp1ΔVD loaded at 6 μM onto Superose 6 10/300 GL

Binder	stoichiometry N [1]	Mff-stimulated GTPase activity on NT compared to Drp1 WT [2]	stoichiometry N [3]
B1	2 and 4	3 fold	–
B2	4 and 2	–	–
B3	–	–	4
B4	2	–	–

— publication PMC6051998, “Steric interference from intrinsically disordered regions controls dynamin-related protein 1 self-assembly during mitochondrial fission” (Scientific Reports, 2018)
